Laboratory results from patent US20220411477A1 (MONASH UNIVERSITY, published 2022).

T1: AMH-specific type II receptor, AMHR2 (UniProt Q16671 18-573, limits assumed)
T1 sequence (looked up): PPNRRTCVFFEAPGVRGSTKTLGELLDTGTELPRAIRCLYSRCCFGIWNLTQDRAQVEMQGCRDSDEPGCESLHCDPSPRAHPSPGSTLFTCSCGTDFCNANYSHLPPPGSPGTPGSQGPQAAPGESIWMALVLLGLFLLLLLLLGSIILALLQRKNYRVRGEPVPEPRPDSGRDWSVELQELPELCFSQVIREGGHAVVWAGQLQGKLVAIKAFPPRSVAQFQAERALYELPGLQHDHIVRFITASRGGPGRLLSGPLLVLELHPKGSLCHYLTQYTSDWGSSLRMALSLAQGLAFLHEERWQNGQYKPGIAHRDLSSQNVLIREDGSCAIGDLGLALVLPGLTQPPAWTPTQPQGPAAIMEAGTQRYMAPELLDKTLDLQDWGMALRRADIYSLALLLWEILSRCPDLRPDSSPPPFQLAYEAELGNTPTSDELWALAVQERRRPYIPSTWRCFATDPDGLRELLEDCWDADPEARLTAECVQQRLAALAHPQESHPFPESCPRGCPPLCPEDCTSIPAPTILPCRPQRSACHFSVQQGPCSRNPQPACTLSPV


Target: T1, AMH-specific type II receptor, AMHR2
Test: cell-based or functional assay

Maximal response relative to wild-type (%)	AMH activity relative to wild type (%)	EC50 in COV434 BRE-Luc assay	Potency relative to ‘wild-type’	Binder
~5%	–	–	–	hAMH mutant A546M (ligand) chain 1: HHHHHHPAVGTSGLIFREDLDWPPGSPQEPLCLVALGGDSNGSSSPLRVVGALSAYEQAFLGAVQRARWGPRDLATFGVCNTGDRQAALPSLRRLGAWLQDPGGQRLVVLHLEEVTWEPTPSLRFQEPPPGGAGPPELALLVLYPGPGPEVTVTRAGLPGAQSLCPSRDTRYLVLAVDRPAGAWRGSGLALTLQPRGEDSRLSTARLQALLFGDDHRCFTRMTPALLLLPRSEPAPLPAHGQLDTVPFPPPRPSAELEESPPSADPFLETLTRLVRALRVPPARASAPRLALDPDALAGFPQGLVNLSDPAALERLLDGEEPLLLLLRPTAATTGDPAPLHDPTSAPWATALARRVAAELQAAAAELRSLPGLPPATAPLLARLLALCPGGPGGLGDPLRALLLLKALQGLRVEWRGRDPRGPGISSRKKR chain 2: SVSSSAGATAADGPCALRELSVDLRAERSVLIPETYQANNCQGVCGWPQSDRNPRYGNHVVLLLKMQARGAALARPPCCVPTAYAGKLLISLSEERISMHHVPNMVATECGCR
–	250%	~2.8 ng/mL	~2 fold more potent	hAMH+SCUT+RSA G533A mutant (ligand) chain 1: HHHHHHPAVGTSGLIFREDLDWPPGSPQEPLCLVALGGDSNGSSSPLRVVGALSAYEQAFLGAVQRARWGPRDLATFGVCNTGDRQAALPSLRRLGAWLQDPGGQRLVVLHLEEVTWEPTPSLRFQEPPPGGAGPPELALLVLYPGPGPEVTVTRAGLPGAQSLCPSRDTRYLVLAVDRPAGAWRGSGLALTLQPRGEDSRLSTARLQALLFGDDHRCFTRMTPALLLLPRSEPAPLPAHGQLDTVPFPPPRPSAELEESPPSADPFLETLTRLVRALRVPPARASAPRLALDPDALAGFPQGLVNLSDPAALERLLDGEEPLLLLLRPTAATTGDPAPLHDPTSAPWATALARRVAAELQAAAAELRSLPGLPPATAPLLARLLALCPGGPGGLGDPLRALLLLKALQGLRVEWRGRDPRGPGISSRKKR chain 2: SVSSSAGATAADGPCALRELSVDLRAERSVLIPETYQANNCQGVCGWPQSDRNPRYGNHVVLLLKMQARGAALARPPCCVPTAYAAKLLISLSEERISAHHVPNMVATECGCR
–	100%	~6 ng/mL	–	hAMH+SCUT+RSA H548K mutant (ligand) chain 1: HHHHHHPAVGTSGLIFREDLDWPPGSPQEPLCLVALGGDSNGSSSPLRVVGALSAYEQAFLGAVQRARWGPRDLATFGVCNTGDRQAALPSLRRLGAWLQDPGGQRLVVLHLEEVTWEPTPSLRFQEPPPGGAGPPELALLVLYPGPGPEVTVTRAGLPGAQSLCPSRDTRYLVLAVDRPAGAWRGSGLALTLQPRGEDSRLSTARLQALLFGDDHRCFTRMTPALLLLPRSEPAPLPAHGQLDTVPFPPPRPSAELEESPPSADPFLETLTRLVRALRVPPARASAPRLALDPDALAGFPQGLVNLSDPAALERLLDGEEPLLLLLRPTAATTGDPAPLHDPTSAPWATALARRVAAELQAAAAELRSLPGLPPATAPLLARLLALCPGGPGGLGDPLRALLLLKALQGLRVEWRGRDPRGPGISSRKKR chain 2: SVSSSAGATAADGPCALRELSVDLRAERSVLIPETYQANNCQGVCGWPQSDRNPRYGNHVVLLLKMQARGAALARPPCCVPTAYAGKLLISLSEERISAHKVPNMVATECGCR
